Assay [1] relates to cancer cell growth. Particulars: in vitro and in vivo; cited from earlier work. An excerpt: BS69 (ZMYND11) is an emerging tumor suppressor [19–21] that was originally identified as the Adenovirus protein E1A and EBNA2-interacting protein [22, 23]. […] BS69 contains, in addition to a C-terminal MYND (MYeloid translocation protein 8, Nervy and DEAF-1) domain, an N-terminal Plant Homo Domain (PHD) zinc finger, a Bromo domain and a PWWP domain.

The test system of assay [2] is EBNA1-mediated transcriptional activation of OriP-Luc reporter. The assay is described as follows: OriP-Luc reporter assay (EBNA1-mediated transcription). Type of assay: cell-based, Epstein-Barr virus. The settings on record: 10 μg EBNA1 expression plasmid, 5 μg OriP-Luc reporter. The source says: (§1) Cell culture and reporter gene assays for EBNA2-mediated transcription activation
(§2) The BS69CC-MYND dual domain, wild-type or the Q546A mutant, were inserted into a pCBS/FLAG mammalian expression vector [54], in which the BS69 fragments are preceded by a FLAG-tag. In the case of the Q546A/W550A BS69CC-MYND expression plasmid, the flanking DNA fragment was subcloned into the pSG5-Flag vector [55]. The EBNA2 expression vector harboring PXLXP1 or PXLXP2 mutations was generated by carrying out the PCR-based mutagenesis protocol provided by the manufactory (Stratagene). In each case, the codons of two prolines were replaced with the codons of alanine simultaneously. For EBNA2-dependent transcription reporter assays, 10 μg of the expression vector of EBNA2 (E2), 5 μg flag-BS69CC- MYND wild type, or Q546A plasmid, and 5 μg LMP1-Luc or Cp-Luc reporter plasmid, and 1 μg CMV-βGal control plasmid were co-transfected into BJAB cells following the protocol as described previously. For the parallel control, 10 μg EBNA1 expression plasmid and 5 μg OriP-Luc reporter plasmid were used instead. Luciferase and β-Gal activities were assayed by Orion L (Berthold). A DNA fragment encoding residues 375–465 of EBNA2 from EBV W91 strain [49] containing CR7 and CR8 of EBNA2 were inserted into pCD-Gal4(1–147) vector to generate pCD-Gal4-EBNA2(375–465), which encodes a GAL4-EBNA2 fusion protein. […]

In assay [3] the test system is EBNA2. The experiment in a line: Confocal immunofluorescence of EBNA2 and BS69 in EBV-infected B cells. Type of assay: cell-based, Epstein-Barr virus. The settings on record: EBV infected B cells at 1 and 3 dpi. How it is done: 5x10^4/per 100 μl primary B cells were cultured in RPMI 1640 supplemented with 15% fetal calf serum (FCS), 2 mM L-glutamine, and penicillin/streptomycin, and aliquoted into a 96-well plate. 100 μL previously purified EBV [52] or PBS (mock infection) was utilized as the inoculum. Cells were collected at 0, 1, 3, 5, and 7 days of post-infection (dpi) and BS69 mRNA expression in virus or mock -infected B cells were determined as the relative expression levels versus GAPDH by quantitative reverse transcription real time PCR (qRT-PCR). For Western blot analysis, a total of 5x10^5 B cells with EBV infection were collected at 0, 1, 4, and 7 dpi, respectively. The primers for BS69 are […] (F) and […] (R), whereas the primers for GAPDH internal control are […] (F) and […] (R). The primers for chromatin immunoprecipitati on assays of the LMP1 promoter and GAPDH promoter control have been described previously. The amount of ChIPed DNA was quantified by real time PCR and represented as % of input DNA. For Immunofluorescence analysis (IFA), cells were fixed in 2% paraformaldehyde (Sigma) and subjected to an immunostaining protocol using antibodies for BS69 (Santa Cruz), and EBNA2 (Santa Cruz). […]

Assay [4] deals with LMP1-DNA (LMP1 promoter). The assay is described as follows: ChIP at LMP1 promoter DNA in transfected BJAB cells. The format is cell-based, Epstein-Barr virus. The settings on record: M2 ChIP. An excerpt:
To determine whether BS69CC-MYND is able to associate with EBNA2 target promoters through protein-protein interactions, we performed Chromatin Immunoprecipitation (ChIP) assays using BJAB cells, in which flag-tagged wild-type, Q546A, or […] BS69CC-MYND was co-transfected with or without EBNA2 expression vector and a reporter plasmid containing the LMP1 promoter, LMP1-Luc. […] On the other hand, an EBNA2 ChIP brought down ~13% of LMP1-DNA, consistent with the fact that LMP1 is one of the target sites of EBNA2 [35, 36].
5x10^4/per 100 μl primary B cells were cultured in RPMI 1640 supplemented with 15% fetal calf serum (FCS), 2 mM L-glutamine, and penicillin/streptomycin, and aliquoted into a 96-well plate. […] Cells were collected at 0, 1, 3, 5, and 7 days of post-infection (dpi) and BS69 mRNA expression in virus or mock -infected B cells were determined as the relative expression levels versus GAPDH by quantitative reverse transcription real time PCR (qRT-PCR). […] The amount of ChIPed DNA was quantified by real time PCR and represented as % of input DNA. […]
The transfection-mediated co-immunoprecipitation (Co-IP) assay was employed to identify the physical interaction of EBNA2 with BS69CC-MYND using EBV-negative B lymphoma cells (BJAB). […] The proteins were detected and visualized using an ECL detection kit (Millipore). […]

The test system of assay [5] is EBNA2. The experiment in a line: Co-immunoprecipitation of EBNA2 with flag-BS69CC-MYND in BJAB cells. Type of assay: cell-based, Epstein-Barr virus. Particulars: anti-flag M2 IP, Western blot. An excerpt: To address whether the BS69 C-terminal domain, if expressed, interacts with EBNA2 in vivo, we ectopically co-expressed flag-tagged wild-type, Q546A, or Q546A/W550A BS69CC-MYND with EBNA2 in BJAB cells, followed by immunoprecipitation using anti-flag M2-conjugated sepharose and Western blotting with antibodies against EBNA2 and M2, respectively. […] In addition, the immunofluorescence (IF) image pointed to a reduction of large amount of BS69 expression in EBV infected B cells at 5 dpi, confirming the barely low expression levels of BS69 shown in Fig 4B.
Co-immunoprecipitation, chromatin immunoprecipitation (ChIP), and western blot analyses
The transfection-mediated co-immunoprecipitation (Co-IP) assay was employed to identify the physical interaction of EBNA2 with BS69CC-MYND using EBV-negative B lymphoma cells (BJAB). Cells were co-transfected with the expression plasmids of EBNA2 (E2) and flag- BS69CC-MYND wild type, Q546A mutant (Q546A), or Q546A/W550A mutant (Q546A/W550A) and subjected to IP analysis using M2-conjugated sepharose (Sigma). […] The proteins were detected and visualized using an ECL detection kit (Millipore). […] The protein levels of endogenous BS69 in the obtained cell lines were determined by Western blot using BS69 antibody (Santa Cruz biotechnology). […] The proteins were detected and visualized using an ECL detection kit (Millipore).

The test system of assay [6] is G5-TK-Luc reporter, Gal4-EBNA2 transcriptional activation. The assay is described as follows: G5-TK-Luc reporter assay with Gal4-EBNA2 in HeLa cells. Type of assay: cell-based. Particulars: 10 ng BS69CC-MYND expression vector, relative to no Gal4 activator (set to 1), means of minimum 3 independent experiments each in triplicates.
Source text: as §1
The BS69CC-MYND dual domain, wild-type or the Q546A mutant, were inserted into a pCBS/FLAG mammalian expression vector [54], in which the BS69 fragments are preceded by a FLAG-tag. In the case of the Q546A/W550A BS69CC-MYND expression plasmid, the flanking DNA fragment was subcloned into the pSG5-Flag vector [55]. The EBNA2 expression vector harboring PXLXP1 or PXLXP2 mutations was generated by carrying out the PCR-based mutagenesis protocol provided by the manufactory (Stratagene). In each case, the codons of two prolines were replaced with the codons of alanine simultaneously. […]
Supplementary file ppat.1005414.s003.tif: S3 Fig In vivo transcription assays of G5-TK-Luc reporter gene. (A) The expression of Flag-tagged wild-type or Q546A BS69CC-MYND in HeLa cells was analyzed by Western blotting using anti-flag M2 monoclonal antibody. […] (B) Relative transcription activation by GAL4 DBD, Gal4-EBNA2 and Gal4-VP16 was analyzed in transfected HeLa cells in the absence or presence of 10 ng expression vector for wild-type BS69CC-MYND or its Q546A mutant. […]
For orientation: A reporter such as luciferase makes a cellular process visible.

Assay [7] deals with Cp-Luc reporter, EBNA2-mediated transcriptional activation. The assay is described as follows: Cp-Luc reporter assay (EBNA2-mediated transcription) in BJAB cells. Type of assay: cell-based, Epstein-Barr virus. Particulars: 10 μg EBNA2 vector, 5 μg flag-BS69CC-MYND plasmid, 5 μg reporter.
Source text: as §1, §2

In assay [8] the test system is LMP1-Luc reporter, EBNA2-mediated transcriptional activation. The assay is described as follows: LMP1-Luc reporter assay (EBNA2-mediated transcription) in BJAB cells. Type of assay: cell-based, Epstein-Barr virus. The settings on record: 10 μg EBNA2 vector, 5 μg flag-BS69CC-MYND plasmid, 5 μg reporter.
Source text: as §1, §2

Bounds are passed on as bounds.

B1: BS69: emerging tumor suppressor, Adenovirus protein E1A and EBNA2-interacting protein (protein, UniProt Q15326 1-602, looked up)
Zinc finger MYND …: MARLTKRRQADTKAIQHLWAAIEIIRNQKQIANIDRITKYMSRVHGMHPKETTRQLSLAVKDGLIVETLTVGCKGSKAGIEQEGYWLPGDEIDWETENHDWYCFECHLPGEVLICDLCFRVYHSKCLSDEFRLRDSSSPWQCPVCRSIKKKNTNKQEMGTYLRFIVSRMKERAIDLNKKGKDNKHPMYRRLVHSAVDVPTIQEKVNEGKYRSYEEFKADAQLLLHNTVIFYGADSEQADIARMLYKDTCHELDELQLCKNCFYLSNARPDNWFCYPCIPNHELVWAKMKGFGFWPAKVMQKEDNQVDVRFFGHHHQRAWIPSENIQDITVNIHRLHVKRSMGWKKACDELELHQRFLREGRFWKSKNEDRGEEEAESSISSTSNEQLKVTQEPRAKKGRRNQSVEPKKEEPEPETEAVSSSQEIPTMPQPIEKVSVSTQTKKLSASSPRMLHRSTQTTNDGVCQSMCHDKYTKIFNDFKDRMKSDHKRETERVVREALEKLRSEMEEEKRQAVNKAVANMQGEMDRKCKQVKEKCKEEFVEEIKKLATQHKQLISQTKKKQWCYNCEEEAMYHCCWNTSYCSIKCQQEHWHAEHKRTCRRKR
In the case of B1, the “effect of BS69 overexpression on cancer cell growth” value in assay [1] was “suppresses cancer cell growth both in vitro and in vivo”. In assay [2], the “suppression of EBNA1-mediated transcriptional activation of OriP-Luc” value is listed as “failed to suppress”. Moreover, the “colocalization of EBNA2 and BS69” value in assay [3] is “colocalization of EBNA2 and BS69 appeared”.

B2: BS69CC-MYND: residues 440–562 of BS69/ZMYND11, tandem coiled-coil-MYND domains (protein, UniProt Q15326 440-562, looked up, fragment)
chain: TKKLSASSPRMLHRSTQTTNDGVCQSMCHDKYTKIFNDFKDRMKSDHKRETERVVREALEKLRSEMEEEKRQAVNKAVANMQGEMDRKCKQVKEKCKEEFVEEIKKLATQHKQLISQTKKKQW
modifications: coiled-coil-MYND domain FLAG tag
notes: residues 440–562 of BS69/ZMYND11, tandem coiled-coil-MYND domains
Turning to B2, the “ChIPed LMP1-DNA” value is reported as 7–8 % over input DNA in assay [4] (absence of EBNA2 (similar to IgG negative control)) and ~ 17% in assay [4] (presence of EBNA2, % of input DNA). The EBNA2 co-precipitation entry in assay [5] is “EBNA2 co-precipitates with wild-type flag-tagged BS69CC-MYND”. In addition, in assay [6], the “activation of G5-TK-Luc by Gal4-EBNA2 in presence of BS69CC-MYND” value is given as “less than 4 fold”. The “relative transcriptional activation by EBNA2 in presence of BS69CC-MYND, Cp-Luc” value in assay [7] is given as at most 2 fold. Besides, in assay [8], the “relative transcriptional activation by EBNA2 in presence of BS69CC-MYND, LMP1-Luc” value is at most 2 fold.

Source of the values: PMC4742278, “BS69/ZMYND11 C-Terminal Domains Bind and Inhibit EBNA2” (PLoS Pathogens, 2016).
